Positions count from the first letter of the chain named. Names and notes keep the numbering of the source. Read-outs that look alike come from different tables or passages of the source.
Experiments:
[1] = target: T1, c-erbB-2 ECD with a Ser-Gly-His6 C-terminal fusion (UniProt P04626 23-652); assay: SPR BIAcore
T1 construct: extracellular domain; Expressed from CHO cells, IMAC purified; coupled to a CM5 chip, coated on plates, or biotinylated with NHS-LC-biotin; also called c-erbB-2 extracellular domain; biotinylated c-erbB-2 ECD

[2] = target: T1, c-erbB-2 ECD with a Ser-Gly-His6 …; assay: SPR BIAcore; remark: listed apart in the source
Procedure: (§1) All assays were performed in triplicate. Briefly, […] of radioiodinated sFv was added to 5×10^6 SK-OV cells in the presence of increasing concentrations of unlabeled sFv from the same preparation. After a 30 minute incubation at 20° C., the samples were washed with PBS at 4° C. and centrifuged at 500 g. The amount of labeled sFv bound to the cells was determined by counting the pellets in a gamma counter and the K_a, and K_d were calculated using the EBDA program (V 2.0, G. A. McPherson, 1983). The K_d of all the other isolated sFv were determined using surface plasmon resonance in a BIAcore (Pharmacia). In a BIAcore flow cell, approximately 1400 resonance units (RU) of c-erbB-2 ECD (25 μg/ml in 10 mM sodium acetate, pH 4.5) was coupled to a CM5 sensor chip (Johnsson et al. (1991), supra). Association and dissociation-rates were measured under continuous flow of […] using a concentration range from 50 to 800 nM. Rate constant $kon$ was determined from a plot of (1(dR/dt))/t vs concentration (Karlsson et al. (1991), supra). Rate constant $Hoff$ was determined from the dissociation part of the sensorgram at the highest concentration of sFv analyzed.

[3] = target: T1, c-erbB-2 ECD with a Ser-Gly-His6 …; assay: SPR BIAcore; remark: listed apart in the source
Procedure: as §1

[4] = target: T1, c-erbB-2 ECD with a Ser-Gly-His6 …; assay: SPR BIAcore (Kd ND, expression too low)
[5] = target: T1, c-erbB-2 ECD with a Ser-Gly-His6 …; assay: SPR BIAcore, unpurified sFv
[6] = target: T2, c-erbB-2 expressed on cells (SK-OV-3, SK-BR-3) (UniProt P04626 23-1255, limits assumed); assay: Scatchard after radioiodination, SK-OV cells
T2 construct: whole, on cells; also called native c-erbB-2 expressed on cells; c-erbB-2 on SK-OV-3 cells
Procedure: as §1
(§2) These clones were purified by IMAC after subcloning into PUC119SFI/NotmycHis, and the affinity determined by Scatchard analysis.

[7] = target: T1, c-erbB-2 ECD with a Ser-Gly-His6 …; assay: competition ELISA, sFv preincubated with soluble c-erbB-2 (0 to 100 nM)
Procedure: Meth. 77: 305–319). Immunolon 4 ELISA plates (Dynatech) were coated with avidin in PBS (10 μg/ml) at 4° C. overnight. Biotinylated c-erbB-2 ECD (5 μg/ml) was added to the wells and incubated for 30 min at room temperature. Bacterial supernatant containing sFv was incubated with varying concentrations of c-erbB-2 (0 to 100 nM) at 4° C. for 1 h. The amount of free sFv was then determined by transferring 100 μl of each mixture into the wells of the previously prepared ELISA plate and incubating for 1 h at 4° C. Binding of sFv was detected as under ELISA screening and the IC50 calculated as described (Friguet et al. (1985), supra)
as §2

[8] = target: T1, c-erbB-2 ECD with a Ser-Gly-His6 …; assay: SPR BIAcore; remark: listed apart in the source
[9] = target: T1, c-erbB-2 ECD with a Ser-Gly-His6 …; assay: SPR BIAcore; remark: listed apart in the source
[10] = target: T2, c-erbB-2 expressed on cells (SK-OV-3, …); assay: Scatchard on SK-OV-3 cells
Procedure: (§3) All assays were performed in triplicate. […] The amount of labeled sFv bound to the cells was determined by counting the pellets in a gamma counter and the K_a, and K_d were calculated using the EBDA program (V 2.0, G. A. McPherson, 1983).

[11] = target: T2, c-erbB-2 expressed on cells (SK-OV-3, …); assay: Scatchard on SK-OV-3 cells; remark: listed apart in the source
Procedure: as §3

B1: C6L1 sFv (scFv)
scFv: QVQLLQSGAELKKPGESLKISCKGSGYSFTSYWIAWVRQMPGKGLEYMGLIYPGDSDTKYSPSFQGQVTISVDKSVSTAYLQWSSLKPSDSAVYFCARHDVGYCSSSNCAKWPEYFQHWGQGTLVTVSSGGGGSGGGGSGGGGSQSVLTQPPSVSGAPGQWVTISCSGSSSNIGNNYVSWYQQLPGTAPKLLIYDNNKRPSGVPDRFSGSQSGTSASLAISGLRSEDEADYYCAAWDDSLSGWVFGGGTKLTVLG
notes: Light chain shuffled: C6.5 VH with new VL; also called C6L1 (light chain shuffle)
[1]
  Kd: 2.5 nM
  fold higher affinity than parental: 6 fold
[2]
  Kd: 2.6 nM
  koff: 0.002 s⁻¹
  kon: 780000 M⁻¹ s⁻¹
[3]
  Kd: 2.6 nM

B2: C6MH3-D7 (scFv)
scFv: QVQLLQSGAELKKPGESLKISCKGSGYSFTSYWIAWVRQMPGKGLEYMGLIYPGDSDTKYSPSFQGQVTISVDKSVSTAYLQWSSLKPSDSAVYFCARHDVGYCSSSNCAKWPEWQDPWGQGTLVTVSSGGGGSGGGGSGGGGSQSVLTQPPSVSAAPGQKVTISCSGSSSNIGNNYVSWYQQLPGTAPKLLIYGHTNRPAGVPDRFSGSKSGTSASLAISGFRSEDEADYYCASWDYTLSGWVFGGGTKLTVLG
notes: C6ML3-9 sFv, VH CDR3 library D mutant; expression too low for a purified Kd
[4]
  koff: 0.00031 s⁻¹

B3: C6ML3-A2 (scFv)
scFv: B2 scFv with Y103F, W115Y, Q116F, D117Q, P118H
notes: C6ML3-9 sFv, VH CDR3 library A clone; unpurified in the koff screen; also called mutant sFv with the conservative replacement of Y99F
[5]
  fold lower apparent koff than wt: 2.5 fold

B4: C6VLB (scFv)
scFv: QVQLLQSGAELKKPGESLKISCKGSGYSFTSYWIAWVRQMPGKGLEYMGLIYPGDSDTKYSPSFQGQVTISVDKSVSTAYLQWSSLKPSDSAVYFCARHDVGYCSSSNCAKWPEYFQHWGQGTLVTVSSGGGGSGGGGSGGGGSQSVLTQPPSVSAAPGQKVTISCSGSSSNIGNNYVSWYQQLPGTAPKLLIYSDNQRPSGVPDRFSGSKSGTSASLAISGLRSEDEADYYCAAWDDSLSGHWVFGGGTKLTVLG
notes: Light chain shuffled; mixture of monomer and dimer by gel filtration
[6]
  Kd: 30 nM
[7]
  IC50: 10 nM

B5: C6VLD (scFv)
scFv: QVQLLQSGAELKKPGESLKISCKGSGYSFTSYWIAWVRQMPGKGLEYMGLIYPGDSDTKYSPSFQGQVTISVDKSVSTAYLQWSSLKPSDSAVYFCARHDVGYCSSSNCAKWPEYFQHWGQGTLVTVSSGGGGSGGGGSGGGGSQSVLTQPPSVSAAPGQKVTISCSGTNSNIGNNYVSWYQQLPGTAPKLLIYTNDQRPSGVPDRFSGSKSGTSASLAISGLQSEDEADYYCAAWDDSLNGWMFGGGTKLTVLG
modifications: Radioiodinated for the Scatchard assay; the label is not carried in the letters.
notes: as for B4
[6]
  Kd: 26 nM
[7]
  IC50: 5.8 nM

B6: 741F8 sFv (scFv, V domains shown)
VH: EIQLVQSGPELKKPGETVKISCKASGYTFTNYGMNWVKQAPGKGLKWMGWINTNTGEPTYAEEFKGRFAFSLETSASTAYLQINNLKNEDTATYFCGRQFITYGGFANWGQGTLVTVSA
VL: DIVMTQSPKFMSTSVGDRVSISCKASQDVSTAVAWYQQKPGQSPKLLIYWTSTRHTGVPDRFTGSGSGTDYTLTISSVQAEDLALHYCQQHYRVPYTFGGGTKLEIK
[8]
  Kd: 26 nM
  koff: 0.0064 s⁻¹
  kon: 240000 M⁻¹ s⁻¹
[9]
  Kd: 26 nM
  koff: 0.0064 s⁻¹
  kon: 240000 M⁻¹ s⁻¹
[10]
  Kd: 54 nM
[11]
  Kd: 54 nM

B7: C6H1 (scFv)
chain: QVQLVESGAEVKKPRESLKISCKGSGYSFTSYEIAWVRQMPGKGLEYMGLIYPGDSDTKYSPSFQGQVTISVDKSVSTAYLQWSSLKPSDTAMYYCARHDVGYCSSSNCAKWPEYFQHWGQGTLVTVSSGGGGSGGGGSGGGGSQSVLTQPPSVSAAPGQKVTISCSGSSSNIGNNYVSWYQQLPGTAPKLLIYGHTNRPAGVPDRFSGSKSGTSASLAISGFRSEDEADYYCAAWDDSLSGWVFGGGTKLTVLG
[1]
  fold higher affinity than C6.5: 3 fold
[3]
  Kd: 5.9 nM

B8: C6H2 (scFv)
scFv: B7 chain with E6Q, E33W, G54A, D57K, K59I, P88T
notes: Heavy chain shuffled
[1]
  fold higher affinity than C6.5: 5 fold
[3]
  Kd: 3.1 nM

B9: C6VLF (scFv)
scFv: QVQLLQSGAELKKPGESLKISCKGSGYSFTSYWIAWVRQMPGKGLEYMGLIYPGDSDTKYSPSFQGQVTISVDKSVSTAYLQWSSLKPSDSAVYFCARHDVGYCSSSNCAKWPEYFQHWGQGTLVTVSSGGGGSGGGGSGGGGSQSVLTQPPSMSAAPGQKVTISCSGSSSNIGNNYVSWYQQFPGTAPKLLIHDNNKRPSGIPDRISGSKSGTSASLAISGLQSDDEADYYCAAWDDSLNGWVFGGGTKLTVLG
modifications: Radioiodinated for the Scatchard assay; the label is not carried in the letters.
notes: as for B4
[6]
  Kd: 79 nM
[7]
  IC50: 7.5 nM

B10: C6VLE (scFv)
scFv: QVQLLQSGAELKKPGESLKISCKGSGYSFTSYWIAWVRQMPGKGLEYMGLIYPGDSDTKYSPSFQGQVTISVDKSVSTAYLQWSSLKPSDSAVYFCARHDVGYCSSSNCAKWPEYFQHWGQGTLVTVSSGGGGSGGGGSGGGGSQSVLTQPPSVSAAAGQKVTISCSGSSSSIGRNYVSWNQQLPGTAPKLLIWRNNQRPSGVPDRFSGSKSGTSASLAISGVRSEDEADYYCASWDNSLSGWVFGGGTKLTVLG
modifications: Radioiodinated for the Scatchard assay; the label is not carried in the letters.
notes: as for B4
[6]
  Kd: 71 nM
[7]
  IC50: 2.8 nM
